Measured values published in the supplement of paper PMC10126150.
± gives the standard deviation of the averaged measurements.

test system: ATP; assay: switch fluorescence ratio, 500 uM ATP over buffer (Cy3 cluster intensity, sum of 5 cycles each) (fold (ratio)); higher = stronger signal-on switching upon ATP binding; sequences stand for … in TCGTCGGCAGCGTCAGATGTGTATAAGAGACAGTTTTTTTTTTTTTTTTTTTTTTTTT…TC; settings: aptamer strand: ATP DNA aptamer (quencher-CACCTGGGGGAGTATTGCGGAGGAAGG + anchor), 100 nM annealed; ATP concentration: 500 uM
Outline: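 Clusters carrying Cy3-labelled switching strands on a modified Illumina MiSeq flow-cell were annealed to 100 nM quencher-labelled ATP aptamer and imaged in selection buffer. They were imaged again after 15 min with 500 uM ATP at 22 °C, over five buffer/ATP cycles with NaOH stripping and re-annealing in between. For each cluster, the fluorescence ratio is the summed Cy3 intensity of the target cycles divided by that of the buffer cycles, averaged per switch-domain sequence. Clusters outside 100-1000 RFU were left out.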
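Also: ATP exposure 15 min at 22 °C before imaging.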

Row | Sequence | switch fluorescence ratio
1 | CGCCGGGGGC | 1.03 ± 0.014
2 | TATGGATAGG | 0.996 ± 0.014
3 | TTACTTGAGG | 1.11 ± 0.13
4 | AGCCTGATCT | 1.036 ± 0.0053
5 | GCCGGCTTCT | 1.02 ± 0.016
6 | GTGGGGGCTT | 0.947 ± 0.021
7 | TTTTGGCCGG | 1.05 ± 0.035
8 | GCGGATGTGC | 1.036 ± 0.0078
9 | TAATTTTTTA | 0.976 ± 0.03
10 | AACGATGTAA | 0.9951 ± 0.0059
11 | TTTAAGGTGA | 1.04 ± 0.053
12 | TGAGTAATAG | 2.01 ± 0.87
13 | GGGATAAGGT | 0.979 ± 0.03
14 | TTACGGATGT | 1.02 ± 0.012
15 | GGATTGTTGT | 0.994 ± 0.022
16 | TAACGGGAAT | 0.99 ± 0.02
17 | CGATTTATGT | 0.9925 ± 0.0057
18 | TTTTTGTCCA | 1 ± 0.041
19 | TGAATTTCGA | 0.953 ± 0.025
20 | AGCAAATTCG | 1.04 ± 0.016
21 | TTCCCCAGTT | 1.03 ± 0.036
22 | AAATTGGGTG | 1.02 ± 0.048

Row | Sequence | switch fluorescence ratio
23 | GACATGGCAG | 1.02 ± 0.04
24 | AACAATTCTG | 1.01 ± 0.012
25 | TTGCTTGCGT | 1.01 ± 0.03
26 | CGGGGCAAAT | 1.04 ± 0.028
27 | GGGGGTGTTT | 0.998 ± 0.037
28 | GTGTTATTGA | 0.97161 ± 0.00039
29 | CTGGCTAGAG | 0.973 ± 0.018
30 | TTTTTTTGTT | 1 ± 0.034
31 | TCTGGGTGAT | 1.03 ± 0.015
32 | GCTCGTAACT | 1 ± 0.0065
33 | AGGGGTTACG | 0.981 ± 0.044
34 | TTTTTCTACG | 1.2 ± 0.28
35 | GTGGGGATTC | 0.971 ± 0.037
36 | TAAGTGGAC | 1.039 ± 0.0089
37 | CGTGCGGCTG | 1.028 ± 0.0066
38 | CAGGGTGATG | 0.985 ± 0.024
39 | ATCATTAGAA | 0.976 ± 0.031
40 | CAATATTACA | 1.05 ± 0.016
41 | GAAGAGGGGA | 1.01 ± 0.013
42 | TAGGGGCACA | 1.01 ± 0.033
43 | GTTAGTTGGA | 0.964 ± 0.025
44 | GTAGGGGGGG | 0.999 ± 0.051

Row | Sequence | switch fluorescence ratio
45 | CTGGGGCGGA | 0.983 ± 0.052
46 | AGTTGCCTG | 0.997 ± 0.08
47 | TTTTAACGGA | 1.03 ± 0.041
48 | AGACGGGATT | 1.03 ± 0.021
49 | TTGGGGGACG | 0.982 ± 0.048
50 | AAACACTAAG | 1.08 ± 0.016
51 | TGAAATATTG | 0.996 ± 0.022
52 | CAAAGGGGGA | 1 ± 0.033
53 | TTACGTTTC | 1 ± 0.034
54 | TCCGTTTTGG | 1.03 ± 0.066
55 | CGGATGTTCA | 1.001 ± 0.0059
56 | CGATGTCTCT | 0.973 ± 0.047
57 | CCGTAATGGG | 1.85 ± 0.038
58 | AAAATTGGGA | 1.01 ± 0.035
59 | GCCATGCGTC | 1.01 ± 0.026
60 | AGTGTTTTTG | 0.9936 ± 0.0011
61 | TTTTCTATGG | 1 ± 0.082
62 | GAATAAGGTA | 0.993 ± 0.011
63 | GGACCTGGCG | 1.08 ± 0.15
64 | GGGTATTAGC | 0.982 ± 0.053
65 | CGAGTAGGGG | 1.01 ± 0.025
66 | AGCGGAAGAA | 1.02 ± 0.024

Row | Sequence | switch fluorescence ratio
67 | CAACCTGCGA | 1.4175 ± 0.0011
68 | GAAAAAAGCG | 1.01 ± 0.041
69 | ACCGTGAAGG | 0.99924 ± 8.2e-05
70 | GGGTAGTTGG | 0.998 ± 0.082
71 | CTGGGAGGGT | 0.9977 ± 0.0012
72 | TGTGAAGTGG | 1.02 ± 0.034
73 | GTTAGGTATT | 0.93 ± 0.023
74 | AAGCTACTGG | 1.0513 ± 0.00024
75 | TTGCTGGCCG | 1.03 ± 0.026
76 | TTTGTTAGGT | 1 ± 0.031
77 | CCTTTAGGGG | 0.997 ± 0.037
78 | TTATTAGGCA | 1.01 ± 0.023
79 | GGGATTATGG | 1.01 ± 0.038
80 | TGGTGGGGCG | 1.11 ± 0.051
81 | AGGTTCATTG | 0.975 ± 0.021
82 | AGGGCTGATA | 1.009 ± 0.0013
83 | GGGGTAAAAG | 1.08 ± 0.2
84 | AGAGGGGTCT | 1.02 ± 0.043
85 | CGGTTGAGTA | 0.9982 ± 0.0043
